How the values were obtained:
[1] = target: T1, GDF11 (UniProt O95390 299-407); assay: SPR (Biacore); receptor-Fc captured by anti-hFc antibody, ligand injected
T1 construct: also called BMP11
T1 sequence (looked up): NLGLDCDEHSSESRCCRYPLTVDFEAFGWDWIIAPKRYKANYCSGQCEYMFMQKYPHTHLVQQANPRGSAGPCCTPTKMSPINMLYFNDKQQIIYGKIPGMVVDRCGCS
Protocol: (§1) Binding of certain ActRIIB-Fc proteins and ActRIIB variant Fc fusion polypeptides to ligands was tested in a Biacore™ assay.
(§2) The ActRIIB-Fc variants or wild-type protein were captured onto the system using an anti-hFc antibody. Ligands were injected and flowed over the captured receptor proteins.

[2] = target: T2, activin A (UniProt P08476 311-426); assay: as above
T2 construct: also called ActA
T2 sequence (looked up): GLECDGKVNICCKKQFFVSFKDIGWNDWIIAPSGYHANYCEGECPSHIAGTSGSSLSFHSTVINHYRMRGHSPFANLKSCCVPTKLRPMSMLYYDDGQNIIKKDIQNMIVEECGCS
Protocol: as §1, §2

[3] = target: T3, GDF8 (UniProt O14793 267-375); assay: as above
T3 construct: also called myostatin
T3 sequence (looked up): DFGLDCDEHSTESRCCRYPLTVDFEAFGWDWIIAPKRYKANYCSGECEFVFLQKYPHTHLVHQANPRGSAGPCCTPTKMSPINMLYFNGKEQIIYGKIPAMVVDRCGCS
Protocol: as §1, §2

[4] = target: T1, GDF11; assay: SPR (Biacore); ligand coupled, receptor flowed over (as reported in WO2006/012627); -- means <1/5 WT binding
Text: (§3) Other variants have been generated and tested, as reported in WO2006/012627 (incorporated herein by reference in its entirety). See, e.g., pp. 59-60, using ligands coupled to the device and flowing receptor over the coupled ligands. […] Table 11 showing data with respect to these variants is reproduced below: […]

[5] = target: T2, activin A; assay: SPR (Biacore); ligand coupled, receptor flowed over (as reported in WO2006/012627)
Text: as §3

[6] = target: T1, GDF11; assay: as above
Text: as §3

Row | Binder | Kd [1] [nM] | koff [1] [s⁻¹] | Kd [2] [nM] | koff [2] [s⁻¹] | kon [2] [M⁻¹ s⁻¹] | Kd [3] [nM] | koff [3] [s⁻¹] | binding result [5] | also measured
1 | ActRIIB(20-134)-hFc (Fc fusion, also called ActRIIB-hFc) GRGEAETRECIYYNANWELERTNQSGLERCEGEQDKRLHCYASWRNSSGTIELVKKGCWLDDFNCYDRQECVATEENPQVYFCCCEGNFCNERFTHLPEAGGPEVTYEPPPTAPTGGGTHTCPPCPAPELLGGPSVFLFPPKPKDTLMISRTPEVTCVVVDVSHEDPEVKFNWYVDGVEVHNAKTKPREEQYNSTYRVVSVLTVLHQDWLNGKEYKCKVSNKALPVPIEKTISKAKGQPREPQVYTLPPSREEMTKNQVSLTCLVKGFYPSDIAVEWESNGQPENNYKTTPPVLDSDGSFFLYSKLTVDKSRWQQGNVFSCSVMHEALHNHYTQKSLSLSPGK | 0.0842 | 0.000113 | 0.0268 | 0.000159 | 5.94e+06 | 0.0935 | 3.45e-05 |  | kon [1]: 1.34e+06 M⁻¹ s⁻¹
2 | ActRIIB(L79D 20-134)-hFc (Fc fusion) GRGEAETRECIYYNANWELERTNQSGLERCEGEQDKRLHCYASWRNSSGTIELVKKGCWDDDFNCYDRQECVATEENPQVYFCCCEGNFCNERFTHLPEAGGPEVTYEPPPTAPTGGGTHTCPPCPAPELLGGPSVFLFPPKPKDTLMISRTPEVTCVVVDVSHEDPEVKFNWYVDGVEVHNAKTKPREEQYNSTYRVVSVLTVLHQDWLNGKEYKCKVSNKALPVPIEKTISKAKGQPREPQVYTLPPSREEMTKNQVSLTCLVKGFYPSDIAVEWESNGQPENNYKTTPPVLDSDGSFFLYSKLTVDKSRWQQGNVFSCSVMHEALHNHYTQKSLSLSPGK | 0.655 | 0.000439 |  |  |  | 2.15 | 0.00083 |  | 
3 | ActRIIB(P129S, P130R 20-134)-hFc (Fc fusion) GRGEAETRECIYYNANWELERTNQSGLERCEGEQDKRLHCYASWRNSSGTIELVKKGCWLDDFNCYDRQECVATEENPQVYFCCCEGNFCNERFTHLPEAGGPEVTYEPSRTAPTGGGTHTCPPCPAPELLGGPSVFLFPPKPKDTLMISRTPEVTCVVVDVSHEDPEVKFNWYVDGVEVHNAKTKPREEQYNSTYRVVSVLTVLHQDWLNGKEYKCKVSNKALPVPIEKTISKAKGQPREPQVYTLPPSREEMTKNQVSLTCLVKGFYPSDIAVEWESNGQPENNYKTTPPVLDSDGSFFLYSKLTVDKSRWQQGNVFSCSVMHEALHNHYTQKSLSLSPGK |  |  | 0.0831 | 0.000417 | 5.02e+06 | 1.67 | 0.00018 |  | 
4 | ActRIIB(K74A 20-134)-hFc (Fc fusion) GRGEAETRECIYYNANWELERTNQSGLERCEGEQDKRLHCYASWRNSSGTIELVAKGCWLDDFNCYDRQECVATEENPQVYFCCCEGNFCNERFTHLPEAGGPEVTYEPPPTAPTGGGTHTCPPCPAPELLGGPSVFLFPPKPKDTLMISRTPEVTCVVVDVSHEDPEVKFNWYVDGVEVHNAKTKPREEQYNSTYRVVSVLTVLHQDWLNGKEYKCKVSNKALPVPIEKTISKAKGQPREPQVYTLPPSREEMTKNQVSLTCLVKGFYPSDIAVEWESNGQPENNYKTTPPVLDSDGSFFLYSKLTVDKSRWQQGNVFSCSVMHEALHNHYTQKSLSLSPGK |  |  |  |  |  | 0.0718 | 2.03e-05 |  | 
5 | ActRIIB(L79E 20-134)-hFc (Fc fusion) GRGEAETRECIYYNANWELERTNQSGLERCEGEQDKRLHCYASWRNSSGTIELVKKGCWEDDFNCYDRQECVATEENPQVYFCCCEGNFCNERFTHLPEAGGPEVTYEPPPTAPTGGGTHTCPPCPAPELLGGPSVFLFPPKPKDTLMISRTPEVTCVVVDVSHEDPEVKFNWYVDGVEVHNAKTKPREEQYNSTYRVVSVLTVLHQDWLNGKEYKCKVSNKALPVPIEKTISKAKGQPREPQVYTLPPSREEMTKNQVSLTCLVKGFYPSDIAVEWESNGQPENNYKTTPPVLDSDGSFFLYSKLTVDKSRWQQGNVFSCSVMHEALHNHYTQKSLSLSPGK | 0.716 | 0.000274 |  |  |  | 2.41 | 0.0009 |  | 
6 | ActRIIB(R64K 20-134)-hFc (Fc fusion) GRGEAETRECIYYNANWELERTNQSGLERCEGEQDKRLHCYASWKNSSGTIELVKKGCWLDDFNCYDRQECVATEENPQVYFCCCEGNFCNERFTHLPEAGGPEVTYEPPPTAPTGGGTHTCPPCPAPELLGGPSVFLFPPKPKDTLMISRTPEVTCVVVDVSHEDPEVKFNWYVDGVEVHNAKTKPREEQYNSTYRVVSVLTVLHQDWLNGKEYKCKVSNKALPVPIEKTISKAKGQPREPQVYTLPPSREEMTKNQVSLTCLVKGFYPSDIAVEWESNGQPENNYKTTPPVLDSDGSFFLYSKLTVDKSRWQQGNVFSCSVMHEALHNHYTQKSLSLSPGK | 0.0356 | 2.41e-05 | 0.0476 | 0.000325 | 6.82e+06 | 0.21 | 4.71e-05 |  | 
7 | ActRIIB(A24N 20-134)-hFc (Fc fusion) GRGENETRECIYYNANWELERTNQSGLERCEGEQDKRLHCYASWRNSSGTIELVKKGCWLDDFNCYDRQECVATEENPQVYFCCCEGNFCNERFTHLPEAGGPEVTYEPPPTAPTGGGTHTCPPCPAPELLGGPSVFLFPPKPKDTLMISRTPEVTCVVVDVSHEDPEVKFNWYVDGVEVHNAKTKPREEQYNSTYRVVSVLTVLHQDWLNGKEYKCKVSNKALPVPIEKTISKAKGQPREPQVYTLPPSREEMTKNQVSLTCLVKGFYPSDIAVEWESNGQPENNYKTTPPVLDSDGSFFLYSKLTVDKSRWQQGNVFSCSVMHEALHNHYTQKSLSLSPGK | 0.0519 | 6.35e-05 | 0.104 | 0.000346 | 3.34e+06 |  |  |  | 
8 | ActRIIB(R64K 20-129)-hFc (Fc fusion) GRGEAETRECIYYNANWELERTNQSGLERCEGEQDKRLHCYASWKNSSGTIELVKKGCWLDDFNCYDRQECVATEENPQVYFCCCEGNFCNERFTHLPEAGGPEVTYEPPGGGTHTCPPCPAPELLGGPSVFLFPPKPKDTLMISRTPEVTCVVVDVSHEDPEVKFNWYVDGVEVHNAKTKPREEQYNSTYRVVSVLTVLHQDWLNGKEYKCKVSNKALPVPIEKTISKAKGQPREPQVYTLPPSREEMTKNQVSLTCLVKGFYPSDIAVEWESNGQPENNYKTTPPVLDSDGSFFLYSKLTVDKSRWQQGNVFSCSVMHEALHNHYTQKSLSLSPGK |  |  | 0.0841 | 0.000628 | 7.46e+06 | 2.15 | 0.000209 |  | 
9 | Soluble ActRIIB-Fc D80I (Table 11) (Fc fusion, UniProt Q13705 19-119, looked up, not shown: a dimerising Fc or GST) SGRGEAETRECIYYNANWELERTNQSGLERCEGEQDKRLHCYASWANSSGTIELVKKGCWLIDFNCYDRQECVATEENPQVYFCCCEGNFCNERFTHLPEA |  |  |  |  |  |  |  | no binding | binding relative to WT [4]: < 0.2 fold
10 | Soluble ActRIIB-Fc K74Y (Table 11) (Fc fusion, UniProt Q13705 19-119, looked up, not shown: a dimerising Fc or GST) SGRGEAETRECIYYNANWELERTNQSGLERCEGEQDKRLHCYASWANSSGTIELVYKGCWLDDFNCYDRQECVATEENPQVYFCCCEGNFCNERFTHLPEA |  |  |  |  |  |  |  | no binding | binding relative to WT [4]: < 0.2 fold
11 | Soluble ActRIIB-Fc W78A (Table 11) (Fc fusion, UniProt Q13705 19-119, looked up, not shown: a dimerising Fc or GST) SGRGEAETRECIYYNANWELERTNQSGLERCEGEQDKRLHCYASWANSSGTIELVKKGCALDDFNCYDRQECVATEENPQVYFCCCEGNFCNERFTHLPEA |  |  |  |  |  |  |  | no binding | binding result [6]: no binding
12 | Soluble ActRIIB-Fc R56A (Table 11) (Fc fusion, UniProt Q13705 19-119, looked up, not shown: a dimerising Fc or GST) SGRGEAETRECIYYNANWELERTNQSGLERCEGEQDKALHCYASWANSSGTIELVKKGCWLDDFNCYDRQECVATEENPQVYFCCCEGNFCNERFTHLPEA |  |  |  |  |  |  |  | no binding | binding result [6]: no binding
13 | Soluble ActRIIB-Fc K74F (Table 11) (Fc fusion, UniProt Q13705 19-119, looked up, not shown: a dimerising Fc or GST) SGRGEAETRECIYYNANWELERTNQSGLERCEGEQDKRLHCYASWANSSGTIELVFKGCWLDDFNCYDRQECVATEENPQVYFCCCEGNFCNERFTHLPEA |  |  |  |  |  |  |  | no binding | binding relative to WT [4]: < 0.2 fold
14 | Soluble ActRIIB-Fc K74I (Table 11) (Fc fusion, UniProt Q13705 19-119, looked up, not shown: a dimerising Fc or GST) SGRGEAETRECIYYNANWELERTNQSGLERCEGEQDKRLHCYASWANSSGTIELVIKGCWLDDFNCYDRQECVATEENPQVYFCCCEGNFCNERFTHLPEA |  |  |  |  |  |  |  | no binding | binding relative to WT [4]: < 0.2 fold
